The values below come from US20190231872A1 (INDUSTRY ACADEMIC COOPERATION FOUNDATION HALLYM UNIVERSITY, published 2019).

Like-named read-outs stand apart in the source and are kept apart here.

In assay [1] the target is T1, hTM4SF5EC2-C cyclic peptide (human, cyclic: disulfide bond between the cysteines that replace glycine 133 and valine 156 (3rd and 26th residue of the peptide); biotinylated for SPR).
T1 construct: Chemically synthesized (Peptron); also called cyclic TM4SF5 peptide; TM4SF5 cyclic peptide
T1 peptide: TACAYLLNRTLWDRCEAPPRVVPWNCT
Description: SPR, Kd of hEC2-C-2 against Kd of mEC2-C. The method, then: (§1) The affinities of anti-hTM4SF5 monoclonal antibody (mEC2-C) and humanized anti-TM4SF5 antibody (hEC2-C-2) binding to hTM4SF5EC2-C cyclic peptide were measured at 25° C. using the Reichert SPR system. Biotinylated peptides were captured from each flowing cell surface of a streptoavidin-coated sensor chip. Biotin was used as a negative control. Anti-hTM4SF5 monoclonal antibody (mEC2-C) and humanized anti-TM4SF5 antibody were injected at a flow rate of […]. Data were evaluated using Reichert SPR evaluation software.
A general note: Surface plasmon resonance follows binding to a sensor surface in real time, without labels.

In assay [2] the target is T1, hTM4SF5EC2-C cyclic peptide. Nature of the assay: SPR (Reichert SPR 7500DC), biotinylated peptide on streptavidin chip, antibody injected, 25 C. The procedure: as §1
Assay [3] shares this target. Description: SPR (Reichert SPR 7500DC), cyclic peptide hTM4SF5EC2-C on chip, antibody 0 to 3.75 nM, 1:1 binding with mass transfer. The method, then: as §1
Assay [4] concerns the target T2, hTM4SF5R2-3 peptide (human).
T2 peptide: NRTLWDRCEAPPRV
Nature of the assay: ELISA on coated hTM4SF5R2-3, purified antibody titrated. In general terms: ELISA stands for enzyme-linked immunosorbent assay.

The target in assay [5] is T1, hTM4SF5EC2-C cyclic peptide. Nature of the assay: ELISA on coated hTM4SF5EC2-C, purified antibody titrated.
The target of assay [6] is T3, Myc-tagged recombinant human TM4SF5 protein (human, UniProt O14894 1-197).
T3 construct: whole, on cells; tested in cell lysates by Western blot and immunoprecipitation, not on whole cells; also called hTM4SF5; recombinant TM4SF5 protein; not shown: C-terminal Myc-His tag of the vector pcDNA-3.1/Myc-His(-)B
T3 sequence (looked up): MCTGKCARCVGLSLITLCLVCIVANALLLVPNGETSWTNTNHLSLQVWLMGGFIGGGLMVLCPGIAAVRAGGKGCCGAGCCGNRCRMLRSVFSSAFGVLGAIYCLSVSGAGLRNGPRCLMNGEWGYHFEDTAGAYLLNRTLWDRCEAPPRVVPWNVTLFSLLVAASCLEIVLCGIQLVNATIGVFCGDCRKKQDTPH
Description: Western blot of HEK 293F-EV and HEK 293F-TM4SF5 lysates with hybridoma culture supernatant.

The target in assay [7] is T2, hTM4SF5R2-3 peptide. Description: ELISA on coated hTM4SF5R2-3, purified antibody titrated.
Assay [8] has as its target T1, hTM4SF5EC2-C cyclic peptide. Nature of the assay: ELISA on coated hTM4SF5EC2-C, purified antibody titrated.
Assay [9] shares this target. Description: SPR (Reichert SPR 7500DC), biotinylated cyclic peptide on streptavidin chip, antibody 0 to 80 nM, 1:1 binding with mass transfer. The method, then:
FIG. 6 represents purification and characterization of mouse anti-TM4SF5 monoclonal antibodies recognizing TM4SF5 cyclic peptides. (A) Hydrops abdominis was producted from BALB/c mice by injecting i.p. into the abdominal cavity with hybridoma clone (2A10 clone) derived from FIG. 5. Anti-TM4SF5 monoclonal antibody was purified using protein-A agarose column chromatography and the purified antibody was identified by SDS-PAGE and Coomassie blue staining. (B) The isotype was determined by obtaining titration curves using purified monoclonal antibodies. (C) A binding affinity of monoclonal antibody for cyclic peptide hTM4SF5EC2-C was determined by using ELISA. (D) A binding affinity of monoclonal antibody for cyclic peptide […] was determined by using Reichert Analytical Instruments SPR 7500DC (Reichert). Biotinylated peptides were immobilized on streptavidin chip and the amount of antibody was increased. Kinetic parameters of binding reactions are expressed under sensorgrams.
The affinities of anti-hTM4SF5 monoclonal antibody (mEC2-C) and humanized anti-TM4SF5 antibody (hEC2-C-2) binding to hTM4SF5EC2-C cyclic peptide were measured at 25° C. using the Reichert SPR system. Biotinylated peptides were captured from each flowing cell surface of a streptoavidin-coated sensor chip. Biotin was used as a negative control. […] Data were evaluated using Reichert SPR evaluation software.

B1: humanized anti-TM4SF5 antibody hEC2-C-2 (antibody, V domains shown)
VH: EVQLVESGGGLVQPGGSLRLSCAASGFSLTSYGVTWVRQAPGKGLEWLGVIWSDGSTNYQSALISRLTISRDNSKNTAYLQMNSLRAEDTAVYYCARPSNYYYFDYWGQGTLVTVSS
VL: DIQMTQSPSSLSASVGDRVTITCKSSQSLFDRRTRKTYLAWYQQKPGKAPKLLISWASTRESGVPSRFSGSGSGTDFTLTISSLQPEDFATYYCKQSYNLFTFGQGTKVEIK
notes: hEC2-C-2 is the clone that was expressed and tested; also called hEC2-C-2 Ab; hEC2-C-2 IgG
What is called Kd is the free concentration of one partner at which half of the binding sites on the other are occupied at equilibrium, for simple one-to-one binding. A high value points to lower affinity. In general, koff refers to the first-order rate constant of dissociation. Low values mean slow dissociation, high ones fast dissociation. In general, kon refers to the second-order rate constant of association. For orientation: EC50 (read off the curve) means the concentration giving half of the maximal effect. Read a high EC50 (read off the curve) as a less potent agent. As to B1, the “fold lower Kd than the original mouse monoclonal antibody mEC2-C” value in assay [1] was approximately 20 fold. The molecule further came in with a dissociation constant Kd in [2] of approximately 0.0227 nM. In assay [3], this molecule came in with a Kd of 0.0227 nM, an off-rate constant (koff) of 1e-05 s⁻¹ and a kon of 440000 M⁻¹ s⁻¹. Further, in the assay with hTM4SF5R2-3 peptide [4], the binding result is recorded as “no binding (tested: 1e-6 M)”. Besides, the concentration for a half-maximal effect (EC50 (read off the curve)) in assay [5] is approximately 0.1 nM.

B2: anti-TM4SF5 monoclonal antibody mEC2-C (antibody, V domains shown)
VH: QVQLEESGPGLVAPSQSLSIICTVSGFSLTSYGVTWVRQPPGKGLEWLGVIWSDGSTNYQSALISRLTISRDNSKSQAFLKLNSLQTDDTATYYCARPSNYYYFDYWGQGTTLTVSS
VL: DIVMTQSPSSLAVSAGERVTLSCKSSQSLFDRRTRKTYLAWYQQKPGQSPKLLISWASTRESGVPDRFTGSGSGTDFTLTISSVQAEDLAVYYCKQSYNLFTFGGGTKLEIK
notes: also called mouse anti-TM4SF5 monoclonal antibody; anti-hTM4SF5 monoclonal antibody
B2: in assay [6], the binding result was “binds”. Moreover, in the assay with hTM4SF5R2-3 peptide [7], the binding result was “no binding (tested: 1e-6 M)”. In assay [2], this molecule returned a dissociation constant (Kd) not above 0.48 nM and an off-rate (koff) not above 1e-05 s⁻¹. Further, in assay [8], the “EC50 (read off the curve)” value was approximately 3 nM. In assay [9], this molecule showed an equilibrium dissociation constant (Kd) of 0.488 nM and a kon of 20500 M⁻¹ s⁻¹.
